B1: LapB cytoplasmic domain (LapB_(cyto)) (domain or fragment, Escherichia coli strain CFT073, UniProt P0AB58 21-389, looked up)
chain: RRSAQQNKQDEANRLSRDYVAGVNFLLSNQQDKAVDLFLDMLKEDTGTVEAHLTLGNLFRSRGEVDRAIRIHQTLMESASLTYEQRLLAIQQLGRDYMAAGLYDRAEDMFNQLTDETDFRIGALQQLLQIYQATSEWQKAIDVAERLVKLGKDKQRVEIAHFYCELALQHMASDDLDRAMTLLKKGAAADKNSARVSIMMGRVFMAKGEYAKAVESLQRVISQDRELVSETLEMLQTCYQQLGKTAEWAEFLQRAVEENTGADAELMLADIIEARDGSEAAQVYITRQLQRHPTMRVFHKLMDYHLNEAEEGRAKESLMVLRDMVGEKVRSKPRYRCQKCGFTAYTLYWHCPSCRAWSTIKPIRGLDGL
B2: LpxC labeled with Atto488 (enzyme, Escherichia coli strain CFT073, UniProt P0A725 1-305, looked up)
chain: MIKQRTLKRIVQATGVGLHTGKKVTLTLRPAPANTGVIYRRTDLNPPVDFPADAKSVRDTMLCTCLVNEHDVRISTVEHLNAALAGLGIDNIVIEVNAPEIPIMDGSAAPFVYLLLDAGIDELNCAKKFVRIKETVRVEDGDKWAEFKPYNGFSLDFTIDFNHPAIDSSNQRYAMNFSADAFMRQISRARTFGFMRDIEYLQSRGLCLGGSFDCAIVVDDYRVLNEDGLRFEDEFVRHKMLDAIGDLFMCGHNIIGAFTAYKSGHALNNKLLQAVLAKQEAWEYVTFQDDAELPLAFKAPSAVLA
modifications: Atto488 dye (Atto488 protein labeling kit, protein to dye ratio of 6:1)
notes: LpxC, amplified from Escherichia coli strain CFT073 genomic DNA; His tag removed by 3C protease; also called LpxC-Atto488; source: E. coli BL21 Star (DE3) pLysS, purified (Ni-NTA, 3C cleavage, gel filtration), labeled with Atto488; not shown: His tag, N-terminal, cleaved

Legend:
[1] = molecular target: B2; assay: cell-based or functional assay
[2] = molecular target: B1; assay: inhibition of a protease assay (Kd calculated from the IC50); 0.06 μM FtsH/LapB complex on POPC liposomes, 1.8 μM LpxC-Atto488, 0-12.96 μM LapB_(cyto) in solution, 37 °C, 20 min; Kd = (IC50 – 2KM/3)/2; details: both partners purified
FtsH (non-tagged) = FtsH (non-tagged) (Escherichia coli strain CFT073, UniProt P0AAI3 1-644); assay: cell-based or functional assay
Sequence of FtsH (non-tagged) (P0AAI3 whole entry): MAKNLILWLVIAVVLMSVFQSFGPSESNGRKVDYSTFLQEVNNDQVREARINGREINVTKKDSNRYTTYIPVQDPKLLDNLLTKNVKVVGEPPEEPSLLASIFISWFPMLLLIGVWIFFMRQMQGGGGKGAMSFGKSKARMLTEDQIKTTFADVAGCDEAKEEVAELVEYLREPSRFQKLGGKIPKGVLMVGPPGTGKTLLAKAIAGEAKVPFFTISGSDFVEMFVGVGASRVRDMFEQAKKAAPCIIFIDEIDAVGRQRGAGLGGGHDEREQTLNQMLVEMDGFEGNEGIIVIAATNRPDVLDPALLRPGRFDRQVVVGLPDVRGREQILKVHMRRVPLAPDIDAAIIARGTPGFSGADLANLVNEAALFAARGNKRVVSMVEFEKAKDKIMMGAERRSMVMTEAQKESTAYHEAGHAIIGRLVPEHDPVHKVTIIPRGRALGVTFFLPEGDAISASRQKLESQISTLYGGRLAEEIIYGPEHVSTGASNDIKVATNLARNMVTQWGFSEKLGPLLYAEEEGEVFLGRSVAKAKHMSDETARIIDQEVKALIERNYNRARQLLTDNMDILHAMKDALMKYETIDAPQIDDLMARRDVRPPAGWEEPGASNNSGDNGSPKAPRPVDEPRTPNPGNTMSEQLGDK

Row | Binder | IC50 of inhibition of LpxC-Atto488 degradation by FtsH/LapB proteoliposomes (0-12.96 μM LapB_(cyto)) [1] [nM] | Kd [2] [nM] | fold reduction by LapB of the KM for LpxC degradation by FtsH proteoliposomes (FtsH (non-tagged)) [fold]
1 | B1 | 3960 | – | –
2 | B2 | – | 1340 | ~8
